Assay results taken from paper PMC5587771.
Read-outs that look alike come from different tables or passages of the source.

T1: SmAP1 (Sulfolobus solfataricus, UniProt Q97ZQ0 1-79)
T1 sequence: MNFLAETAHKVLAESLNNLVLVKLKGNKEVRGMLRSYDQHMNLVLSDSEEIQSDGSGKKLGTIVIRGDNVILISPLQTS

B1: SmAP2-cRBM, FAM (ssRNA)
RNA: GGAUGGAUAUUAGGAAAUG
B2: 2194-RBM (ssRNA)
RNA: GGAGAUAUAGUAGGAUAG
B3: 1742-RBM (ssRNA)
RNA: GGAUGGAUAUUAGGUACUGGG
B4: SmAP2-cRBM (ssRNA)
RNA: GGAUGGAUAUUAGGAAAUG
B5: poly(U)15 (ssRNA)
RNA: UUUUUUUUUUUUUUU

Assays:
SmAP2 T40H = SmAP2 T40H (Sulfolobus solfataricus, UniProt Q980S8 1-87, T40H); assay: EMSA
SmAP1 = target: T1, SmAP1; assay: EMSA
SmAP2 [1] = target: T2, SmAP2 (Sulfolobus solfataricus, UniProt Q980S8 1-87); assay: MST
SmAP2 [2] = target: T2, SmAP2; assay: MST; remark: listed apart in the source
SmAP2, NT-647 labelled = SmAP2, NT-647 labelled (Sulfolobus solfataricus, UniProt Q980S8 1-87); assay: MST

Row | Binder | Kd (SmAP2 [2]) [nM] | Kd (SmAP2, NT-647 labelled) [nM] | further results
1 | B1 |  |  | binding result (SmAP2 T40H): no binding; binding result (SmAP1): no binding; Kd (SmAP2 [1]): 32.7 ± 14.4 nM
2 | B2 | 14.4 ± 3.3 |  | 
3 | B3 | 5.9 ± 5.5 |  | 
4 | B4 |  | 42.1 ± 17.8 | 
5 | B5 |  | 426 ± 92 | 
